Reference: patent US5854216A, “Marker for growth hormone-releasing factor receptors” (Universite de Montreal, priority 1996, dated 1998)
Like-named read-outs stand apart in the source and are kept apart here. Blank lines part the entries; values can stand above or below the molecule they belong to. Ends that are not written are not given here. * marks the point of attachment. FITC = O=C1OC2(c3ccc(O)cc3Oc3cc(O)ccc32)c2ccc(NC(=S)*)cc21; X1 = O=C(O)c1cc(C(=O)*)ccc1-c1c2ccc(=O)cc-2oc2cc(O)ccc12

What was measured:
[1] = molecular target: T1, GRF receptors ([^125 I-Tyr^10 ]hGRF(1-44)NH2 binding sites in rat adenopituitary) (Rattus norvegicus, UniProt Q02644); assay: Competitive binding assay with [^125 I-Tyr^10 ]hGRF(1-44)NH2 on anterior pituitary homogenates; settings: for Relative affinity: ratio IC50 of hGRF(1-29)NH2 /IC50 analogue
T1 construct: from tissue; host or cells: rat anterior pituitary homogenate
T1 sequence (Q02644 23-423 isoform Q02644-2 limits assumed): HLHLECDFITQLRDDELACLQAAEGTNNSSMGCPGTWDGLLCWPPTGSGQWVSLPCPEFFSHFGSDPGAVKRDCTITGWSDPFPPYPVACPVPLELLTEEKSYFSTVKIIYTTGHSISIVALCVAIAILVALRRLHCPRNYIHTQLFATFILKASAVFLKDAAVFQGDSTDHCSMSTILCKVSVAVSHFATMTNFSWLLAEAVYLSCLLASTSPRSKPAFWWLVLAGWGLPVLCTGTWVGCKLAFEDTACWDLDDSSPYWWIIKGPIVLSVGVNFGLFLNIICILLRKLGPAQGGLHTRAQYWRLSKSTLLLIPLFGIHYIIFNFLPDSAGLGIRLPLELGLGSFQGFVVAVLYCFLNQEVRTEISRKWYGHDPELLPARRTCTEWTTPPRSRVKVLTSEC
How it was run: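 Rat anterior pituitary homogenates (70 to 75 μg protein) in 50 mM Tris-HCl pH 7.4 with 5 mM EDTA, 5 mM MgCl2, 0.42% BSA were competed with 35-50 pM radioligand against analogues at 0-1000 nM. Non-specific binding defined with 2.4 μM rGRF(1-29)NH2; 60 min at 23° C, stopped by centrifugation, pellet gamma-counted. hGRF(1-29)NH2 run in each experiment as reference.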

[2] = molecular target: T2, GRF receptor (adenylate cyclase activity in rat adenopituitary) (Rattus norvegicus, UniProt Q02644); assay: Adenylate cyclase assay on anterior pituitary homogenates (cAMP by HPLC); type: biochemical; settings: for IC50: 50% of maximal cAMP accumulation induced by 1 μM hGRF(1-29)NH2; for Relative activity: ratio EC50 of hGRF(1-29)NH2 /EC50 analogue
T2 construct: from tissue; host or cells: rat anterior pituitary homogenate
T2 sequence (Q02644 23-423 isoform Q02644-2 limits assumed): T1 sequence (Q02644 23-423 isoform Q02644-2 limits assumed)
Method: The adenylate cyclase activity Nε-CF-[Lys^31 ]hGRF was performed on anterior pituitary homogenates as previously described (Lefrangois L. and Gaudreau P., J. Chromatogr., 1993, 619:116-120). Briefly, anterior pituitaries (pit.) were dissected out, rinsed and homogenized for 8 sec with a Micro Ultrasonic Cell Disrupter™, in ice-cold 20 mM Tris-HCl buffer (pH 7.5) containing 2 mM MgCl2 and 250 mM sucrose (1 pit./0.5 ml).
Samples of anterior pituitary homogenates (30-40 μg protein) were incubated in 1.5 ml Eppendorf™ tubes with 30 mM Tris-HCl, 5 mM MgCl2, 0.5 mM EGTA, containing 0.5 mM ATP, 1 mM IBMX, 10 μM GTP and an ATP regenerating system consisting of 2 mM creatine phosphate, 0.1 mg/ml creatine kinase and, 0.1 mg/ml myokinase in a final volume of 120 μl. Incubations were initiated by adding 20 μl of the homogenate to the reaction mixture which had previously been equilibrated at 37° C. for 2 min. The reactions were carried out for 8 min at 37° C. and stopped by heating the samples in boiling water for 4 min. Samples were centrifuged (12000 g, 5 min, 4° C.) and supernatants were filtered through 0.45 μm Millex HV4 ™ filters and transferred to autosampler vials for HPLC quantification of cAMP.

[3] = molecular target: T3, GRF receptor of rat adenopituitary (rat, UniProt Q02644-2); assay: displacement of 125I-Tyr10 hGRF(1-44)NH2 from rat anterior pituitary homogenate
T3 sequence: T1 sequence (Q02644 23-423 isoform Q02644-2 limits assumed)

[4] = molecular target: T3, GRF receptor of rat adenopituitary
[5] = Storage stability / shelf life; type: physicochemical
[6] = Solubility in water or buffer; type: physicochemical; settings: distilled water or aqueous buffer
[7] = Toxicity (statement only)
[8] = molecular target: T3, GRF receptor of rat adenopituitary; remark: listed apart in the source
[9] = molecular target: T3, GRF receptor of rat adenopituitary; assay: displacement of 125I-Tyr10 hGRF(1-44)NH2 from rat anterior pituitary homogenate; remark: listed apart in the source
Method: (§1) The binding of [^125I-Tyr^10]hGRF(1–44)NH_2 was performed on anterior pituitary homogenates as previously described (Gaudreau P. et al., J. Biol. Chem., 1992, 35:1864–1869). Briefly, anterior pituitaries (pit.) were dissected out, rinsed and homogenized for 8 sec with a Micro Ultrasonic Cell Disrupter™, in ice-cold 50 mM Tris-HCl buffer, pH 7.4, containing 5 mM MgCl_2 and 5 mM EDTA (1 pit./0.5 ml). These homogenates were used immediately. Competition studies were performed using 35–50 pM [^125I-Tyr^10]hGRF(1–44)NH_2 as radio-ligand, 50 µl of homogenate (70 to 75 µg of protein), and increasing concentrations of Nε-CF-[Lys^31]hGRF or other GRF analogues (0–1000 nM) or with 2.4 µM rGRF(1–29)NH_2 for determination of non-specific binding, in a total volume of 300 µl of Tris-HCl buffer, pH 7.4, containing 5 mM EDTA, 5 mM MgCl_2 and 0.42% BSA. Incubations were carried out at 23° C. for 60 min and stopped by centrifugation (12,000 g, 5 min, at 4° C.). The radioactivity content in the pellet was measured by gamma counting. The affinity of hGRF(1–29)NH_2 was tested in each experiment to assess the validity of the assay and determine the relative affinity of the analogues.
75 to 97% of their initial concentration are recovered at the end of the binding assay (Gaudreau P. et al., J. Biol. Chem., 1992, 35:1864–1869). The Ligand computerized program was used to analyse competition curves of all the GRF analogues reported in Tables 4, 7 and 11, and to determine their IC$50$ and Hill coefficient. The Hill values indicate that all these peptides bind to the high and low affinity GRF binding sites found in the anterior pituitary.

[10] = molecular target: T3, GRF receptor of rat adenopituitary; assay: as above; remark: listed apart in the source
Method: as §1
75 to 97% of their initial concentration are recovered at the end of the binding assay (Gaudreau P. et al., J. Biol. Chem., 1992, 35:1864–1869). […]

[11] = Table 11, mean±SD of 2 or mean±SE of 3 experiments for analogues, mean±SE of 11 for hGRF(1-29)NH2
[12] = Table 12, mean±SD of 2 or mean±SE of 3 to 6 experiments, 10 for hGRF(1-29)NH2

- IC50 ([1]; Table 4, mean±SD of 2 experiments in triplicate for analogues, mean±SE of 29 experiments for hGRF(1-29)NH2): 2.67 ± 0.12 nM
- IC50 ([2]; Table 5, mean±SD of 2 experiments (analogue), mean±SE of 10 (hGRF(1-29)NH2)): 36.7 ± 5.5 nM
Molecule: CC[C@H](C)[C@H](NC(=O)[C@H](C)NC(=O)[C@H](CC(=O)O)NC(=O)[C@H](C)NC(=O)[C@@H](N)Cc1ccc(O)cc1)C(=O)N[C@@H](Cc1ccccc1)C(=O)N[C@H](C(=O)N[C@@H](CC(N)=O)C(=O)N[C@@H](CO)C(=O)N[C@@H](Cc1ccc(O)cc1)C(=O)N[C@@H](CCCNC(=N)N)C(=O)N[C@@H](CCCCN)C(=O)N[C@H](C(=O)N[C@@H](CC(C)C)C(=O)NCC(=O)N[C@@H](CCC(N)=O)C(=O)N[C@@H](CC(C)C)C(=O)N[C@@H](CO)C(=O)N[C@@H](C)C(=O)N[C@@H](CCCNC(=N)N)C(=O)N[C@@H](CCCCN)C(=O)N[C@@H](CC(C)C)C(=O)N[C@@H](CC(C)C)C(=O)N[C@@H](CCC(N)=O)C(=O)N[C@@H](CC(=O)O)C(=O)N[C@H](C(=O)N[C@@H](CCSC)C(=O)N[C@@H](CO)C(=O)N[C@@H](CCCNC(=N)N)C(N)=O)[C@@H](C)CC)C(C)C)[C@@H](C)O [hGRF(1-29)NH2, reference compound]

- Relative affinity (%) against hGRF(1-29)NH2 [3]: 774%
- adenylate cyclase activity: EC50 of cAMP accumulation (column head prints IC50) [4]: 2.88 nM
- adenylate cyclase activity: Relative activity (%) against hGRF(1-29)NH2 [4]: 1270%
Molecule: Ala^8,Ala^9,Ala^15,Ala^22 ! hGRF(1-29)NH2 (from UniProt P01286) (peptide)

- Relative affinity (%) against hGRF(1-29)NH2 [3]: 960%
- adenylate cyclase activity: Relative activity (%) against hGRF(1-29)NH2 [4]: 1410%
Molecule: Ala^8,Ala^15,Ala^22 ! hGRF(1-29)NH2 (from UniProt P01286) (peptide)

- Relative affinity (%) against hGRF(1-29)NH2 [3]: 18%
- adenylate cyclase activity: Relative activity (%) against hGRF(1-29)NH2 [4]: 21%
Molecule: D-Ala^2,D-Tyr^10,D-Ala^15 ! hGRF(1-29)NH2 (from UniProt P01286) (peptide)

- Relative affinity (%) against hGRF(1-29)NH2 [3]: 8%
- adenylate cyclase activity: Relative activity (%) against hGRF(1-29)NH2 [4]: 27%
Molecule: D-Ala^2,D-Tyr^10,D-Ala^15,D-Lys^21 ! hGRF(1-29)NH2 (from UniProt P01286) (peptide)

- Relative affinity (%) against hGRF(1-29)NH2 [3]: 49%
- adenylate cyclase activity: Relative activity (%) against hGRF(1-29)NH2 [4]: 55%
Molecule: D-Ans^8,D-Leu^22 ! hGRF(1-29)NH2 (from UniProt P01286) (peptide)

- affinity for adenopituitary GRF receptors (in words) [1]: high affinity
- Hill coef. ([1]; Table 4): 0.55 ± 0.03
- Relative affinity ([1]; Table 4): 73 ± 27%
- shelf life [5]: at least one year
- stability ([5]; protected from light and maintained at 4° C.): stable
- agonist character at the GRF receptor [2]: full GRF receptor agonist
- Relative activity ([2]; Table 5): 55 ± 36%
- solubility [6]: freely soluble
Molecule: H-YADAIFTNSYRKVLGQLSARKLLQDIMSRQK(X1)GESNQERGARARL-NH2 [Nε-5-carboxyfluoresceinyl-[Lys^31]hGRF(1-44)NH2]
- toxicity [7]: 100% non-toxic

- Relative affinity (%) against hGRF(1-29)NH2 [3]: 1040%
- adenylate cyclase activity: EC50 of cAMP accumulation (column head prints IC50) [4]: 2.63 nM
- adenylate cyclase activity: Relative activity (%) against hGRF(1-29)NH2 [4]: 1400%
Molecule: Lys^22 ! hGRF(1-29)NH2 (from UniProt P01286) (peptide)

- IC50 [3]: 3.65 nM
- Relative affinity (%) against hGRF(1-29)NH2 [3]: 73%
- adenylate cyclase activity: EC50 of cAMP accumulation (column head prints IC50) [8]: 67 nM
- adenylate cyclase activity: Relative activity (%) against hGRF(1-29)NH2 [8]: 55%
Molecule: Nε-5-carboxyfluoresceinyl-Lys^31 !hGRF(1-44)NH2 (from UniProt P01286) (peptide)

- IC50 [1, 11]: 0.31 ± 0.14 nM
- IC50 [2, 12]: 2.88 ± 1.01 nM
Molecule: YADAIFTAAYRKVLAQLSARKALQDIMSR-NH2 [Ala^8, Ala^9, Ala^15, Ala^22]

- IC50 [1, 11]: 0.25 ± 0.07 nM
- IC50 [2, 12]: 2.6 ± 0.7 nM
Molecule: YADAIFTASYRKVLAQLSARKALQDIMSR-NH2 [Ala^8, Ala^15, Ala^22]

- Hill coef. ([1]; Table 11): 0.62 ± 0.06
- IC50 [1, 11]: 0.23 ± 0.04 nM
- Relative affinity ([1]; Table 11): 1043 ± 181%
- biological activity compared to that of native GRF ([1]; rat adenopituitary): preserved or increased
- IC50 [2, 12]: 2.63 ± 0.64 nM
- Relative activity ([2]; Table 12): 1395 ± 339%
Molecule: YADAIFTNSYRKVLGQLSARKKLQDIMSR-NH2 [Lys^22]

- Relative affinity (%) against hGRF(1-29)NH2 [9]: 19%
Molecule: {FITC}-YADAIFTNSYRKVLGQLSARKLLQDIMSRQQGESNQERGARARL-NH2 [Nα-fluorescein-5-thiocarbamyl!hGRF(1-44)NH2]

- IC50 [9]: 14 nM
- Relative affinity (%) against hGRF(1-29)NH2 [9]: 19%
Molecule: {FITC}-YADAIFTNSYRKVLGQLSARKLLQDIMSR-NH2 [Nα-fluorescein-5-thiocarbamyl!hGRF(1-29)NH2]

- IC50 [10]: 2.4 nM
- adenylate cyclase activity: EC50 of cAMP accumulation (column head prints IC50) [8]: 36.7 nM
- adenylate cyclase activity: Relative activity (%) [8]: 100%
- Relative affinity (%) against hGRF(1-29)NH2 [9]: 100%
Molecule: YADAIFTNSYRKVLGQLSARKLLQDIMSR-NH2 (ligand) [hGRF(1-29)NH2]
